Measured values reported in PMC11957774 (The Journal of Biological Chemistry, 2025).

T1: MLL4 PHD2/3 fingers (aa 227-324), 15N-labeled (human, UniProt O14686 227-324, uniformly 15N-labeled)
T1 sequence (looked up): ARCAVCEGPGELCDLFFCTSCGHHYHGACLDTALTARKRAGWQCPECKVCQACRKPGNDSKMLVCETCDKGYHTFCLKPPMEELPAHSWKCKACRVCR


Biological target: T1, MLL4 PHD2/3 fingers (aa 227-324), …
Assay: NMR titration

binding result	Binder
binds	GWTGARTLADIKARALQVRGA (peptide, UniProt Q8IXJ9 607-627, looked up) [ASXL1 peptide (residues 607-627 of ASXL1), wild type]
binds	GWTGTRTLADIKARALQVRGA (peptide, UniProt Q8IXJ9 607-627, looked up) [ASXL1 peptide (residues 607-627 of ASXL1) A611T]
binds	NRTGAITLADIKAKAQLVKAQ (peptide, UniProt Q76L83 650-670, looked up) [ASXL2 peptide (residues 650-670 of ASXL2) R655I]
